Measured values from patent US11015206B2, “Compositions and methods comprising sequences having hydroxyphenylpyruvate dioxygenase (HPPD) activity” (PIONEER HI-BRED INTERNATIONAL, INC., priority 2014, dated 2021).

Experiments:
[1] = test system: 4-hydroxyphenylpyruvate dioxygenase (HPPD); assay: Estimate of kcat from initial rate at saturating hydroxyphenylpyruvate without inhibitor (ON rate ratio assay); type: biochemical, Z. mays
Method in brief: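 Reactions used 60 or 120 nM HPPD and saturating 100 μM hydroxyphenylpyruvate without inhibitor. kcat was estimated from the initial rate at the known enzyme concentration.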

[2] = test system: 4-hydroxyphenylpyruvate dioxygenase (HPPD); assay: ON rate ratio: HPPD reaction rate with vs without inhibitor in the 70 to 90 second interval; type: biochemical, Z. mays; conditions: for ON rate ratio: Table 7, tembotrione, combinatorial variants; for Insensitivity, isoxaflutole (DKN), Rate ratio ON: inhibitor diketonitrile form of isoxaflutole (DKN); for Insensitivity, mesotrione, Rate ratio ON: inhibitor mesotrione; for Insensitivity, sulcotrione, Rate ratio ON: inhibitor sulcotrione; for Insensitivity, tembotrione, Rate ratio ON: inhibitor tembotrione; for Insensitivity, topramezone, Rate ratio ON: inhibitor topramezone
Method in brief: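 Time courses of HPPD reactions, 60 or 120 nM enzyme with 100 μM HPP substrate, run with and without 4 μM inhibitor (e.g. mesotrione, tembotrione). Value is the rate with inhibitor over rate without, taken over 70–90 s; higher ratio reflects slower kON.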

[3] = Table 7, combinatorial variants

Molecule	kcat ([1]; Megatable 3, shuffled variants) [s⁻¹]	kcat [1, 3] [s⁻¹]	ON rate ratio [2]	Insensitivity, isoxaflutole (DKN), Rate ratio ON [2]	Insensitivity, mesotrione, Rate ratio ON [2]	Insensitivity, sulcotrione, Rate ratio ON [2]	Insensitivity, tembotrione, Rate ratio ON [2]	Insensitivity, topramezone, Rate ratio ON [2]
P056028-B-09 (protein, Zea mays variant form created by artificial means.) MGPTPTATAAGAAVAAASAAEQAAFRLVGHRNFVRFNPRSDRFQTLAFHHVELWCADAASAAGRFSFALGVPLAARSDLSTGNSAHASLLLRSGSLSLLFTAPYAHGADAATAALPSFSAAAARRFAADHGLAVRAVALRVADAEDAFRASVAAGARPAFGPVDLGRGFRLAEVELYGDVVLRYVSYPDGAAGEPFLPGFEGVASPGAADYGLSRFDHIVGNVPELAPAAAYMAGFTGFHEFAEFTTEDVGTTESGLNSMALANNSENVLLPLNEPVHGTKRRSQIQTFLDHHGGPGVQHIALASDDVLRTLREMRARSAMGGFEFLPPPLSDYYDDVRRCAGDVLTEAQINECQELGVMVDRDDEGVLLQIFTKPVGDRPTFFLEIIQRIGCVEKDEKGQEYQKGGCGGFGKGNFGQLFKSIEDYEKSLEAKRAAAAATAQGS	0.575	0.575	0.648	0.77	0.67	0.78	0.75	0.80
P056028-A-01 (protein, Zea mays variant form created by artificial means.) MGPTPTATAAGAAVAAASAAEQAAFRLVGHRNFVRFNPRSDRFQTLAFHHVELWCADAASAAGRFSFALGVPLAARSDLSTGNSAHASLLLRSGSLSLLFTAPYAHGADAATAALPSFSAAAARRFAADHGLAVRAVALRVADAEDAFRASVAAGARPAFGPVDLGRGFRLAEVELYGDVVLRYVSYPDGAAGEPFLPGFEGVASPGAADYGLSRFDHIVGNVPELAPAAAYMAGFTGFHEFAEFTTEDVGTTESGLNSMALANNSENVLLPLNEPVHGTKRRSQIQTFLDHHGGPGVQHIALASDDVLRTLREMRARSAMGGFEFLPPPLSDYYDGVRRCAGDVLTEAQINECQELGVMVDRDDEGVLLQIFTKPVGDRPTFFLEIIQRIGCMEKDEKGQEYQKGGCGGFGKGNFGQLFKSIEDYEKSLEAKRAAAAATAQGS	0.652	0.652	0.697	0.82	0.67	0.80	0.84	0.85
9070Q366E (protein, Zea mays variant form created by artificial means.) MGPTPTATAAGAAVAAASAAEQAAFRLVGHRNFVRFNPRSDRFQTLAFHHVELWCADAASAAGRFSFALGVPLAARSDLSTGNSAHASLLLRSGSLSLLFTAPYAHGADAATAALPSFSAAAARRFAADHGLAVRAVALRVADAEDAFRASVAAGARPAFGPVDLGRGFRLAEVELYGDVVLRYVSYPDGAAGEPFLPGFEGVASPGAADYGLSRFDHIVGNVPELAPAAAYMAGFTGFHEFAEFTTEDVGTTESGLNSMALANNSENVLLPLNEPVHGTKRRSQIQTFLDHHGGPGVQHIALASDDVLRTLREMRARSAMGGFEFLPPPLSDYYDGVRRCAGDVLTEAQINECQELGVMVDRDDEGVLLQIFTKPVGDRPTFFLEIIQRIGCMEKDEKGQEYQKGGCGGFGKGNFGQLFKSIEDYEKSLEAKQAAAAATAQGS	0.335	0.335	0.760	0.83	0.72	0.80	0.82	0.81
